Laboratory results reported in publication PMC3328465.

What was measured:
[1] = system: CT-SBP2 (human); experiment: EMSA; conditions: EMSA: 20 fmol RNA in 20 uL, 1x PBS, glycerol, 250 ug yeast tRNA, 10 mM DTT, 5 ug soybean trypsin inhibitor, 37 C 30 min, 4% native PAGE; pH not stated
[2] = system: CT-SBP2L (human); experiment: EMSA; conditions: EMSA: 20 fmol RNA in 20 uL, 1x PBS, glycerol, 250 ug yeast tRNA, 10 mM DTT, 5 ug soybean trypsin inhibitor, 37 C 30 min, 4% native PAGE; pH not stated

Substance | Kd [1] [µM] | Kd [2] [µM]
DIO1 SECIS | 0.0027 | 0.0199
DIO2 SECIS | 0.0068 | 0.0713
DIO3 SECIS | 0.0054 | 0.0557
GPX1 SECIS | 0.0063 | 0.112
GPX2 SECIS | 0.0109 | 0.135
GPX3 SECIS | 0.025 | 0.135
GPX4 SECIS | 0.0132 | 0.0582
GPX6 SECIS | 0.15 | 0.313
SEP15 SECIS | 0.005 | 0.0529
SPS2 SECIS | 0.0075 | 0.129
SelH SECIS | 0.0047 | 0.102
SelI SECIS | 0.0122 | 0.0592
SelK SECIS | 0.0036 | 0.0329
SelM SECIS | 0.003 | 0.0234
SelN SECIS | 0.0105 | 0.089
SelO SECIS | 0.007 | 0.0587
SelP SECIS 1 | 0.0034 | 0.0592
SelP SECIS 2 | 0.0016 | 0.0276
SelR SECIS | 0.0097 | 0.196
SelS SECIS | 0.0259 | 0.093
SelT SECIS | 0.004 | 0.102
SelV SECIS | 0.0067 | 0.0124
SelW SECIS | 0.004 | 0.0877
TR1 SECIS | 0.0058 | 0.0206
TR2 SECIS | 0.0116 | 0.0544
TR3 SECIS | 0.0042 | 0.115
